IntAct's records for PubMed 12799422

B1: Tyrosine-protein phosphatase non-receptor type 1 (Gallus gallus (Chicken)), O13016 (parent)
chain: MEIEKEFHRLDQAASWAAIYQDIRHEASDFPCKVAKHPRNKNRNRYRDVSPFDHSRIKLNQGDNDYINASLIKMEEAQRSYILTQGPLPNTCGHFWEMVWEQKSRGVVMLNRVMEKGSIKCAQYWPRKEEKEMFFEDTNLKLTLISEDIKSYYTVRQLELENLTTQETREILHFHYTTWPDFGVPESPASFLNFLFKVRESGSLNPEYGPVVVHCSAGIGRSGTFCLVDTCLLLMDKRKDPSSVDVKQVLLEMRKYRMGLIQTADQLRFSYLAVIEGAKFIMGDASVQEQWKELSNEDLDPPPEHTPPPPRPPKRTSEMHNGRMHEHAEFFPKHQVVEEEIRCSVSTAEETVSDGRVFSSVPLITDSTSQDTEIRRRTVGENLHVTAHKEESKSESVEEDDENMMTTWKPFLVNICMFTFLTAGAYLCYRVCFH
B2: Adapter molecule crk (Homo sapiens), P46108 (parent)
chain: MAGNFDSEERSSWYWGRLSRQEAVALLQGQRHGVFLVRDSSTSPGDYVLSVSENSRVSHYIINSSGPRPPVPPSPAQPPPGVSPSRLRIGDQEFDSLPALLEFYKIHYLDTTTLIEPVSRSRQGSGVILRQEEAEYVRALFDFNGNDEEDLPFKKGDILRIRDKPEEQWWNAEDSEGKRGMIPVPYVEKYRPASASVSALIGGNQEGSHPQPLGGPEPGPYAQPSVNTPLPNLQNGPIYARVIQKRVPNAYDKTALALEVGELVKVTKINVSGQWEGECNGKRGHFPFTHVRLLDQQNPDEDFS
B3: Adapter molecule crk (Homo sapiens), P46108 (parent)
chain: B2 chain
partner: B1 chain
B4: Adapter molecule crk (Homo sapiens), P46108 (parent)
chain: B2 chain
partner: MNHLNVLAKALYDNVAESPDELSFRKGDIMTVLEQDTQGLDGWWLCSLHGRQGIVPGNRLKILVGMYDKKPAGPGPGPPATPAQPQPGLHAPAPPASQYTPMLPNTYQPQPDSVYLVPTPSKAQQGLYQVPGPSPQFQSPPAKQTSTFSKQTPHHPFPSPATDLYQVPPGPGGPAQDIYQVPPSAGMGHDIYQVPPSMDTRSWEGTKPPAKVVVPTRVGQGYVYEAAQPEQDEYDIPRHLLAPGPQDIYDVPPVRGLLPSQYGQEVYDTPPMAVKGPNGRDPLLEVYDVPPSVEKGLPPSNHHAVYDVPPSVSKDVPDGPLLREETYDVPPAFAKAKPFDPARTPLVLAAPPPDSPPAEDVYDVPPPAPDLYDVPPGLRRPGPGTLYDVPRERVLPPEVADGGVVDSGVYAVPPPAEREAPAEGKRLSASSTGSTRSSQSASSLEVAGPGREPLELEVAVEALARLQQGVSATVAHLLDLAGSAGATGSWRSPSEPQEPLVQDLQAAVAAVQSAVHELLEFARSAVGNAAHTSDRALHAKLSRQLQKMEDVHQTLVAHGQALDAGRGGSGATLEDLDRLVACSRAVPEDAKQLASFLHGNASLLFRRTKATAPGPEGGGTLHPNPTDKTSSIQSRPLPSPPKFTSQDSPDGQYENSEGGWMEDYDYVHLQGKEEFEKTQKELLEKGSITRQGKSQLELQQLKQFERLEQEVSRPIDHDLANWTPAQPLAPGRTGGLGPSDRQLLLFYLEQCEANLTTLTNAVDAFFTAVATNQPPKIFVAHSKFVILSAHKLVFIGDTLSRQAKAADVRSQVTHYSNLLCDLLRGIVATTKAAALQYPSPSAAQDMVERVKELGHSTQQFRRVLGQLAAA

Variants of: B1
Conditions: with crk_human CRK, P46108

effect of a mutation on the interaction | Variant
disrupting interaction | MEIEKEFHRLDQAASWAAIYQDIRHEASDFPCKVAKHPRNKNRNRYRDVSPFDHSRIKLNQGDNDYINASLIKMEEAQRSYILTQGPLPNTCGHFWEMVWEQKSRGVVMLNRVMEKGSIKCAQYWPRKEEKEMFFEDTNLKLTLISEDIKSYYTVRQLELENLTTQETREILHFHYTTWPDFGVPESPASFLNFLFKVRESGSLNPEYGPVVVHSSAGIGRSGTFCLVDTCLLLMDKRKDPSSVDVKQVLLEMRKYRMGLIQTADQLRFSYLAVIEGAKFIMGDASVQEQWKELSNEDLDPPPEHTPPPPRPPKRTSEMHNGRMHEHAEFFPKHQVVEEEIRCSVSTAEETVSDGRVFSSVPLITDSTSQDTEIRRRTVGENLHVTAHKEESKSESVEEDDENMMTTWKPFLVNICMFTFLTAGAYLCYRVCFH [C215S]

Variants of: B2
Conditions: with paxi_human PXN

effect of a mutation on the interaction | Variant
increasing interaction | Y221F

Variants of: B3
Conditions: with ptn1_chick PTPN1, O13016

effect of a mutation on the interaction | Variant
decreasing interaction | Y221F

Variants of: B4
Conditions: with bcar1_human BCAR1, P56945

effect of a mutation on the interaction | Variant
increasing interaction | Y221F
